The chains are these.
B1: I2C-13 IgG1 (antibody, V domains shown)
VH: EVQLVESGGGLVQPGGSLRLSCAASGFTFSSYGIHWVRQAPGKGLEWVAYIHSGIGYTIYADSVKGRFTISADTSKNTAYLQMNSLRAEDTAVYYCARTSSTSTSVMDYWGQGTLVTVSS
VL: DIQMTQSPSSLSASVGDRVTITCRASQSVSSAVAWYQQKPGKAPKLLIYSASSLYSGVPSRFSGSRSGTDFTLTISSLQPEDFATYYCQQTYWSPGTFGQGTKVEIK
notes: human IgG1
B2: I2C-15 IgG1 (antibody, V domains shown)
VH: EVQLVESGGGLVQPGGSLRLSCAASGFTFSSYFIHWVRQAPGKGLEWVALIYPDTDDTYYADSVKGRFTISADTSKNTAYLQMNSLRAEDTAVYYCARYGYLGVGAFDYWGQGTLVTVSS
VL: B1 VL with T91L, S94T
notes: human IgG1
B3: I2C-12 IgG1 (antibody, V domains shown)
VH: EVQLVESGGGLVQPGGSLRLSCAASGFTFSSYFIHWVRQAPGKGLEWVAAIHPAFSFTYYADSVKGRFTISADTSKNTAYLQMNSLRAEDTAVYYCARPRLSSAVVLDYWGQGTLVTVSS
VL: B1 VL with T91G, W93Y, S94F
notes: human IgG1
B4: I2C-17 IgG1 (antibody, V domains shown)
VH: EVQLVESGGGLVQPGGSLRLSCAASGFTFSDYFIHWVRQAPGKGLEWVAYIYPASGGTCYADSVKGRFTISADTSKNTAYLQMNSLRAEDTAVYYCARGYIPHMAALDYWGQGTLVTVSS
VL: B1 VL with T91Y, S94W
notes: human IgG1
B5: I2A-35 IgG1 (antibody, V domains shown)
VH: EVQLVESGGGLVQPGGSLRLSCAASGFTFSAYDIHWVRQAPGKGLEWVAWIDPYGGDTDYADSVKGRFTISADTSKNTAYLQMNSLRAEDTAVYYCARSPSYMQYGGLDYWGQGTLVTVSS
VL: B1 VL with T91Y, W93S, P95L, G96L
notes: human IgG1
B6: I2C-14 IgG1 (antibody, V domains shown)
VH: EVQLVESGGGLVQPGGSLRLSCAASGFTFESYDIHWVRQAPGKGLEWVAAIFSYGGYTTYADSVKGRFTISADTSKNTAYLQMNSLRAEDTAVYYCARGSYGDGRGMDYWGQGTLVTVSS
VL: B1 VL with T91Y, W93Y, S94W
notes: human IgG1
B7: I2C-16 IgG1 (antibody, V domains shown)
VH: EVQLVESGGGLVQPGGSLRLSCAASGFTFSSYWIHWVRQAPGKGLEWVAAIHPSGSYTYYADSVKGRFTISADTSKNTAYLQMNSLRAEDTAVYYCARVGLLVTSVMDYWGQGTLVTVSS
VL: B1 VL with T91Y, W93Y, S94F
notes: human IgG1
B8: I2C-5 IgG1 (antibody, V domains shown)
VH: EVQLVESGGGLVQPGGSLRLSCAASGFTFSSYDIHWVRQAPGKGLEWVAWIYPYWGYTIYADSVKGRFTISADTSKNTAYLQMNSLRAEDTAVYYCARGTYAPALDYWGQGTLVTVSS
VL: B1 VL with T91F, W93S, S94Y, P95L, G96S
notes: human IgG1
B9: I2A-8 IgG1 (antibody, V domains shown)
VH: EVQLVESGGGLVQPGGSLRLSCAASGFTFYGYYIHWVRQAPGKGLEWVAGIRPGGTYTYYADSVKGRFTISADTSKNTAYLQMNSLRAEDTAVYYCARYRYPAFDYWGQGTLVTVSS
VL: B1 VL with T91R, Y92R, W93Q, S94H, P95L, G96W
notes: human IgG1
B10: I2A-12 IgG1 (antibody, V domains shown)
VH: EVQLVESGGGLVQPGGSLRLSCAASGFTFTTYYIHWVRQAPGKGLEWVAYISPEDGYTSYADSVKGRFTISADTSKNTAYLQMNSLRAEDTAVYYCARAYYSAVMDYWGQGTLVTVSS
VL: B1 VL with T91S, Y92W, W93S, S94P, P95A, G96T
notes: human IgG1
B11: I2A-37 IgG1 (antibody, V domains shown)
VH: EVQLVESGGGLVQPGGSLRLSCAASGFTFSWYGIHWVRQAPGKGLEWVAYIDSYTSSTYYADSVKGRFTISADTSKNTAYLQMNSLRAEDTAVYYCARSHFGHYDYVMDYWGQGTLVTVSS
VL: B1 VL with T91A, W93D, S94Q, P95L, G96Y
notes: human IgG1
B12: I2C-19 IgG1 (antibody, V domains shown)
VH: EVQLVESGGGLVQPGGSLRLSCAASGFTFTSYDIHWVRQAPGKGLEWVAWIDPGLSYTSYADSVKGRFTISADTSKNTAYLQMNSLRAEDTAVYYCARASIGGGVPVMDYWGQGTLVTVSS
VL: B1 VL with T91Y, Y92V, W93T, S94G, G96Y
notes: human IgG1
B13: I2C-25 IgG1 (antibody, V domains shown)
VH: EVQLVESGGGLVQPGGSLRLSCAASGFTFSDYYIHWVRQAPGKGLEWVAYIAPYGGFTYYADSVKGRFTISADTSKNTAYLQMNSLRAEDTAVYYCARDSYRRGYVSGFDYWGQGTLVTVSS
VL: B1 VL with T91R, W93S, G96S
notes: human IgG1
B14: I2C-21 IgG1 (antibody, V domains shown)
VH: EVQLVESGGGLVQPGGSLRLSCAASGFTFSSYYIHWVRQAPGKGLEWVAWIDPYISYTYYADSVKGRFTISADTSKNTAYLQMNSLRAEDTAVYYCARDSELVSGYAMDYWGQGTLVTVSS
VL: B1 VL with T91G, Y92D, W93S, P95L, G96V
notes: human IgG1
B15: I2C-18 IgG1 (antibody, V domains shown)
VH: EVQLVESGGGLVQPGGSLRLSCAASGFTFAGYPIHWVRQAPGKGLEWVAAIDPDGGYTYYADSVKGRFTISADTSKNTAYLQMNSLRAEDTAVYYCARHTGFHRYRGMDYWGQGTLVTVSS
VL: B1 VL with T91Y, S94F, G96P
notes: human IgG1
B16: I2A-33 IgG1 (antibody, V domains shown)
VH: EVQLVESGGGLVQPGGSLRLSCAASGFTFDDYYIHWVRQAPGKGLEWVAWIDSYGGYTSYADSVKGRFTISADTSKNTAYLQMNSLRAEDTAVYYCARSSYYYPGGFDYWGQGTLVTVSS
VL: B1 VL with T91W, Y92D, W93S, S94T, P95L, G96Y
notes: human IgG1
B17: I2C-3 IgG1 (antibody, V domains shown)
VH: EVQLVESGGGLVQPGGSLRLSCAASGFTFSHYWIHWVRQAPGKGLEWVALIAPGGDYTSYADSVKGRFTISADTSKNTAYLQMNSLRAEDTAVYYCARSGLPGFDYWGQGTLVTVSS
VL: B1 VL with T91Y, Y92K, W93S, G96L
notes: human IgG1
B18: I2C-22 IgG1 (antibody, V domains shown)
VH: EVQLVESGGGLVQPGGSLRLSCAASGFTFSSYSIHWVRQAPGKGLEWVAAIYPYWGTTEYADSVKGRFTISADTSKNTAYLQMNSLRAEDTAVYYCARPSGVTYGYALDYWGQGTLVTVSS
VL: B1 VL with T91Y, W93Y, G96W
notes: human IgG1
B19: I2C-7 IgG1 (antibody, V domains shown)
VH: EVQLVESGGGLVQPGGSLRLSCAASGFTFDSYYIHWVRQAPGKGLEWVAWIDPYGLDTKYADSVKGRFTISADTSKNTAYLQMNSLRAEDTAVYYCAREPGDYGMDYWGQGTLVTVSS
VL: B1 VL with T91A, W93G, P95L, G96L
notes: human IgG1
B20: I2C-26 IgG1 (antibody, V domains shown)
VH: EVQLVESGGGLVQPGGSLRLSCAASGFTFSDYYIHWVRQAPGKGLEWVADIDSYGGFTYYADSVKGRFTISADTSKNTAYLQMNSLRAEDTAVYYCARDPHFLDDVYVLDYWGQGTLVTVSS
VL: B1 VL with T91Y, Y92S, S94G, P95L, G96W
notes: human IgG1
B21: I2A-30 IgG1 (antibody, V domains shown)
VH: EVQLVESGGGLVQPGGSLRLSCAASGFTFDSYFIHWVRQAPGKGLEWVAYIYSWGSYTHYADSVKGRFTISADTSKNTAYLQMNSLRAEDTAVYYCARGHRRYFALDYWGQGTLVTVSS
VL: B1 VL with T91V, W93F, S94T
notes: human IgG1
B22: I2A-24 IgG1 (antibody, V domains shown)
VH: EVQLVESGGGLVQPGGSLRLSCAASGFTFSTYGIHWVRQAPGKGLEWVAAIYPGTSYTGYADSVKGRFTISADTSKNTAYLQMNSLRAEDTAVYYCAREYFMGMDYWGQGTLVTVSS
VL: B1 VL with T91Y, W93Y, S94W
notes: human IgG1

Numbering of substitutions follows the chain as printed. Names and notes keep the numbering of the source.

T3 sequence (Q01973 30-406 limits assumed): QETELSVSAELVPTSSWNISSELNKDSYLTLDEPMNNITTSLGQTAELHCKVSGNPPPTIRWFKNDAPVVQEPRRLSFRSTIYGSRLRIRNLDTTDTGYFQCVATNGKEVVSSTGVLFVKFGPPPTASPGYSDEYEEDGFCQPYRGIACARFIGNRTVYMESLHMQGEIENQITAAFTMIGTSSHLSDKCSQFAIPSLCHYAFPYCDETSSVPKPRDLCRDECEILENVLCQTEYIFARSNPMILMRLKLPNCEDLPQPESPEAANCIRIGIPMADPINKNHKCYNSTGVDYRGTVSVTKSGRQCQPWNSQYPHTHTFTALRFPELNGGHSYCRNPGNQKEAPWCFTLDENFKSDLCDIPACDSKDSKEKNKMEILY

One assay deals with T1, ROR1 Ig-like domain (human, UniProt Q01973 42-147).
T1 construct: also called Acro Cat. No. RO1-H5221
T1 sequence (Q01973 42-147): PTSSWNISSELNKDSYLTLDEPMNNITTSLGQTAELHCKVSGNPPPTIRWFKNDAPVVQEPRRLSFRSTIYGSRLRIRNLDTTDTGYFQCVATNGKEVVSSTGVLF
The assay is described as follows: BLI, IgG1 on biosensor, soluble ROR1 domain. An excerpt: (§1) To measure binding affinity in ROR binder discovery campaigns, the VL and VH domains identified in the phage screen described above were formatted into a bivalent monospecific native human full-length IgG1 architecture and immobilized to a biosensor on an Octet (Pall ForteBio) biolayer interferometer. Soluble ROR antigens, including the extracellular domains of ROR1 (Acro Cat. No. RO1-H522γ) and ROR2 (Acro Cat. No. R02-H52E5), as well as the individual ROR1 Frizzled (Acro Cat. No. RO1-H5222), Ig-like (Acro Cat. No. RO1-H5221), and Kringle (Acro Cat. No. RO1-H5223) domains, were then added to the system and binding measured.
(§2) ROR binding candidates, formatted in the bivalent monospecific native human full-length IgG1 architecture, were further characterized for binding to ROR1 and/or ROR2. […] ROR binding candidates were also characterized for their binding to specific ROR1 domains.
For the molecule B1, the binding result is “binds”.
Turning to B2, the binding result is “binds”.
In the case of B3, the binding result is recorded as “binds”.
Consider B4, for which the binding result was “binds”.
Still for that read-out and setting: as for B5, the entry is “binds”; as for B6, “binds”.
On the same count and under the same terms, as for B7, the entry is “binds”.

The target in the next assay is T2, extracellular domain of human ROR2 (human, UniProt Q01974 34-403).
T2 construct: bought protein; biotinylated in the bivalent assay format; also called Acro Cat. No. RO2-H52E5
T2 sequence (Q01974 34-403 limits assumed): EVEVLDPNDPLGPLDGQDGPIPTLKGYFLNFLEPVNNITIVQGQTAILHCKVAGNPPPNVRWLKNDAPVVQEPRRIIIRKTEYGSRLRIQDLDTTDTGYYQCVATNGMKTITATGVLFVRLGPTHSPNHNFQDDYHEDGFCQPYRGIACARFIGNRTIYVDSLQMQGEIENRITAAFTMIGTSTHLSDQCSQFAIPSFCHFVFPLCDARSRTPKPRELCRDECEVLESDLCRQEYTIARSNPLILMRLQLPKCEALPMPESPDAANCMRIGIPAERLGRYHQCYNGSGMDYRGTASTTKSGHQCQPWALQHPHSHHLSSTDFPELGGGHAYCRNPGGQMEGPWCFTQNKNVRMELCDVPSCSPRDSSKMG
Put plainly: BLI, IgG1 on biosensor, soluble ROR ectodomain.
From the text: as §1, §2
With B1, the binding result was “binds”.
Take B8: the binding result is given as “binds”.
Take B9: the binding result is reported as “no binding”.
Same read-out and setting: the value for B10 was “no binding”; that for B11 was “no binding”.
For B12, the binding result is “binds”.
Regarding B13, the binding result was “binds”.
Still for that read-out and setting: as for B2, the entry is “binds”; as for B14, “binds”; as for B3, “binds”.
On to B4, for which the binding result is on record as “binds”.
For the molecule B15, the binding result is recorded as “binds”.
As for B16, the binding result is reported as “no binding”.
For the molecule B6, the binding result is recorded as “binds”.
B17: the binding result is reported as “binds”.
Regarding B18, the binding result was “binds”.
In the case of B19, the binding result was “binds”.
Regarding B7, the binding result was “binds”.
The same measure, in the same setting: as for B20, the entry is “binds”.
For B21, the binding result was “no binding”.
In the case of B22, the binding result is “binds”.

Another assay addresses T3, extracellular domain of human ROR1 (human, UniProt Q01973 30-406).
T3 construct: bought protein; biotinylated in the bivalent assay format; also called Acro Cat. No. RO1-H522y
Put plainly: BLI, IgG1 on biosensor, soluble ROR ectodomain.
From the text: as §1, §2
As for B1, the binding result is given as “binds”.
With B8, the binding result is on record as “no binding”.
Regarding B12, the binding result is “no binding”.
Consider B13, for which the binding result is reported as “no binding”.
B2: the binding result was “binds”.
For B14, the binding result is “no binding”.
Take B3: the binding result is listed as “binds”.
On the same count and under the same terms, as for B4, the entry is “binds”; as for B15, “binds”.
B6: the binding result is listed as “binds”.
For the molecule B17, the binding result is given as “no binding”.
For the molecule B18, the binding result is recorded as “binds”.
Still for that read-out and setting: as for B19, the entry is “no binding”; as for B7, “binds”; as for B20, “no binding”.
The same measure, in the same setting: the value for B22 was “binds”.

Values taken from patent publication US20240392002A1 (EXELIXIS, published 2024).
